# B1: recombinant embigin extracellular domain GST-fusion protein (EMB-GST) (domain or fragment)
# chain: DGSAPDSPFTSPPLREEIMANNFSLESHNISLTEHSSMPVEKNITLERPSNVNLTCQFTTSGDLNAVNVTWKKDGEQLENNYLVSATGSTLYTQYRFTIINSKQMGSYSCFFREEKEQRGTFNFKVPELHGKNKPLISYVGDSTVLTCKCQNCFPLNWTWYSSNGSVKVPVGVQMNKYVINGTYANETKLKITQLLEEDGESYWCRALFQLGESEEHIELVVLSYLVP
# Target: human plasma fibronectin (human)
# Sequence (P02751 other isoform, or with tags, fused parts or gaps): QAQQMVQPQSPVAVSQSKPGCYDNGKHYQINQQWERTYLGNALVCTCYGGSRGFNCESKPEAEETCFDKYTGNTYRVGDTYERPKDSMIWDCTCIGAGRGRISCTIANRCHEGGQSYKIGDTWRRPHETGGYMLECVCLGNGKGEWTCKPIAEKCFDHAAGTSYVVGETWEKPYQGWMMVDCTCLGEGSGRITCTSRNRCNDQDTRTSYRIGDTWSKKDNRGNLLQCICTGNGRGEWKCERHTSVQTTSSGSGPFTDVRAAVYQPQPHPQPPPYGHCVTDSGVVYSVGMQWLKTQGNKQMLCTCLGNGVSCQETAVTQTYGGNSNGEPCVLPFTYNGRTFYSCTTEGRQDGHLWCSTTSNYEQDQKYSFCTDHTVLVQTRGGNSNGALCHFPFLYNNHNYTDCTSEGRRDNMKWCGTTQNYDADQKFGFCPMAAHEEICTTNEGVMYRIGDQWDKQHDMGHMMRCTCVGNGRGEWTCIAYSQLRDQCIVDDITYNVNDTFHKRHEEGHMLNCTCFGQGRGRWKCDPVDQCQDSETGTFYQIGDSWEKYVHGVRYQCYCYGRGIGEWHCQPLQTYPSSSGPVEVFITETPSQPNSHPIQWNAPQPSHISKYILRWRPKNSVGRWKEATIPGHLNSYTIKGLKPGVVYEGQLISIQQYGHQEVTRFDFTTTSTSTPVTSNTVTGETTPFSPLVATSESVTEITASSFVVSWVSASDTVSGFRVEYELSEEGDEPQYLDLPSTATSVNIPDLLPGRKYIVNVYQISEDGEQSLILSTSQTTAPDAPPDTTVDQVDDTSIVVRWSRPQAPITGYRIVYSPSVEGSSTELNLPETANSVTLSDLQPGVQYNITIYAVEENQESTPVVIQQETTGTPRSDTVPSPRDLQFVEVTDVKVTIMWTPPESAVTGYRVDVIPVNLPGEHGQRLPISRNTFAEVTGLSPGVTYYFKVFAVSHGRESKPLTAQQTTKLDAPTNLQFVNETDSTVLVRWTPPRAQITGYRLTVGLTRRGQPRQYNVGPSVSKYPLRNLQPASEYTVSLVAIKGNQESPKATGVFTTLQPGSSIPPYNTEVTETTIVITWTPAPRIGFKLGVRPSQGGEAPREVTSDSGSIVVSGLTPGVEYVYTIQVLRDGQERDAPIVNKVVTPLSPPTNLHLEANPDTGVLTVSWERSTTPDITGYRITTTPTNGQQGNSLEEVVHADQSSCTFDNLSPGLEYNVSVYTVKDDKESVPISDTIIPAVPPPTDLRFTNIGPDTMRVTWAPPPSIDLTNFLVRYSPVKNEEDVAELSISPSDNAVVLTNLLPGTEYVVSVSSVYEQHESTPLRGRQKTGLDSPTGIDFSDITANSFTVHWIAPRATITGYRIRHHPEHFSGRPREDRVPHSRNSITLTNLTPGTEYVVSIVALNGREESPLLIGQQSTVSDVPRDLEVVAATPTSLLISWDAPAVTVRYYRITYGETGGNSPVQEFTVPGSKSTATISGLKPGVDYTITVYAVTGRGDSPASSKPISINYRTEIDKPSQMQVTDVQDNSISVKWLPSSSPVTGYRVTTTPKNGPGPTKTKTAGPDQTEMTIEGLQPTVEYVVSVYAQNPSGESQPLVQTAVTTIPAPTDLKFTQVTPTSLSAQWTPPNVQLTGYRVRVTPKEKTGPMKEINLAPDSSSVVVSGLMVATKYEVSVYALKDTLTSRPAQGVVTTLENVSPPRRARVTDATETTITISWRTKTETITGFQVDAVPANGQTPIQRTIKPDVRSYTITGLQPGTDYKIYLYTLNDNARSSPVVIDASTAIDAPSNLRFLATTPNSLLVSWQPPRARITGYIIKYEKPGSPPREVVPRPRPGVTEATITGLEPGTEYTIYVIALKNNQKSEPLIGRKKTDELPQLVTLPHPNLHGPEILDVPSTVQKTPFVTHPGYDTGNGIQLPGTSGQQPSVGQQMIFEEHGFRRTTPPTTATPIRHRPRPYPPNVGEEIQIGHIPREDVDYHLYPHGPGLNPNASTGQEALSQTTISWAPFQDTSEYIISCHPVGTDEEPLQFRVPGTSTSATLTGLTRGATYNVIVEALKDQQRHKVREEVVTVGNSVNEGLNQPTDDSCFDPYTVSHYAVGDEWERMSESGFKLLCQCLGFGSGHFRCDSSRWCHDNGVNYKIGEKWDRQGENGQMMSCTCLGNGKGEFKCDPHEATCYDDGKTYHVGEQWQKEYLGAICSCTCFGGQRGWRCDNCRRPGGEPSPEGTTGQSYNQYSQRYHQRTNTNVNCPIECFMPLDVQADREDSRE
binder,measurement,value
B1,Kd,< 50 nM
